pKd: −log10 of the molar value.
Biological target: S2A4 (human)
Test: BLI

S2A4 (human), sequence (heavy, as listed by the source, chain 1 of 2): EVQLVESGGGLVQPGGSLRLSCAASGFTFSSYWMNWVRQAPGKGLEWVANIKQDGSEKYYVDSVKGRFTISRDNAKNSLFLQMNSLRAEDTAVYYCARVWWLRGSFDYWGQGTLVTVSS
S2A4 (human), sequence (light, as listed by the source, chain 2 of 2): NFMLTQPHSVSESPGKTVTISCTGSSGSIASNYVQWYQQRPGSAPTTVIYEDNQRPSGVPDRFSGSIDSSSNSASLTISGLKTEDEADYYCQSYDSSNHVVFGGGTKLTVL

Row | Substance | pKd
1 | Omicron-(L371S+F375S) RBD (from UniProt P0DTC2 319-541) (domain or fragment) | 7.12
2 | Omicron-(L371S+P373S) RBD (from UniProt P0DTC2 319-541) (domain or fragment) | 7.05
3 | Omicron-(P373S+F375S) RBD (from UniProt P0DTC2 319-541) (domain or fragment) | 7.41

From publication PMC11366018
